The target in data set [1] is T1, KIF1C(CC4+IDR)-mNG (Homo sapiens, UniProt O43896 785-1103).
T1 sequence: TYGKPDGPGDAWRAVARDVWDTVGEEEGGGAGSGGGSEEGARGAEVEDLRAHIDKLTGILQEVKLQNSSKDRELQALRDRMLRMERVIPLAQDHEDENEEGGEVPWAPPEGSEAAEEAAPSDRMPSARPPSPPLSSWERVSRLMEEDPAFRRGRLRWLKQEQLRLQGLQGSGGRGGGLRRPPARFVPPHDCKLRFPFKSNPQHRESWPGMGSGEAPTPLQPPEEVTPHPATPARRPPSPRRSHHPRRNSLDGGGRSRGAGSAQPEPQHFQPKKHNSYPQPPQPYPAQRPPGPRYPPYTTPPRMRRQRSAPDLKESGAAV
Nature of the data set: in vitro condensate recruitment (fluorescence microscopy); 120-600 nM RNA, 100 nM protein, 100 mM NaCl; enriched (condensates inhibited at uM RNA); 100 nM KIF1C(CC4+IDR)-mNG in 100 mM NaCl buffer, no crowding agent; pH and temperature of the assay not given in the material. The settings on record: protein: recombinant; tags: C-terminal mNeonGreen; His-SUMO removed by TEV; chain copies: 2; label: 5'-Cy5; single strand.

Data set [2] has as its target T1, KIF1C(CC4+IDR)-mNG. Nature of the data set: in vitro condensate recruitment (fluorescence microscopy); 15-60 nM RNA, 100 nM protein, 100 mM NaCl; selectively enriched in condensates; 100 nM KIF1C(CC4+IDR)-mNG in 100 mM NaCl buffer, no crowding agent; pH and temperature of the assay not given in the material. Particulars: protein: recombinant; tags: C-terminal mNeonGreen; His-SUMO removed by TEV; chain copies: 2; label: 5'-Cy5; single strand.

B1: polyA RNA oligo, Cy5-A13 (ssRNA)
RNA: AAAAAAAAAAAAA
modifications: methylation at each nucleotide (printed mA, probably 2'-O-methyl)
As for B1, the binding result in the data set with KIF1C(CC4+IDR)-mNG [1] was “binds”.

B2: GU-rich RNA oligo, Cy5-(GU)6 (ssRNA)
RNA: GUGUGUGUGUGU
modifications: methylation at each nucleotide (printed mG/mU, probably 2'-O-methyl)
As for B2, in the data set with KIF1C(CC4+IDR)-mNG [2], the binding result is “binds”.

Values taken from paper PMC11294625, “The kinesin-3 KIF1C undergoes liquid-liquid phase separation for accumulation of specific transcripts at the cell periphery”.
